How the values were obtained:
[1] = biological target: T1, GST-IN-CTD (HIV-1 integrase C-terminal domain) (HIV-1, UniProt P04585 1348-1435); assay: competition (AlphaScreen); low salt; competes with His6-SUMO-INI1(183-304) (0.094 uM) for GST-CTD (0.186 uM); Alpha proximity assay, low salt (100 mM NaCl; 500 mM in salt test); buffer, pH and temperature not in the material; conditions: protein: recombinant; tags: GST; hairpin
[2] = biological target: T1, GST-IN-CTD (HIV-1 integrase C-terminal …); assay: AlphaScreen; 100 mM NaCl; displaced by INI1(183-304), IC50 of INI1 about 5 nM (Fig. 4e); Alpha proximity assay, low salt (100 mM NaCl; 500 mM in salt test); buffer, pH and temperature not in the material; conditions: protein: recombinant; tags: GST; label: biotin; hairpin

Binder | IC50 [1] [nM] | binding result [2]
unlabeled TAR RNA (HIV-1 vRNA 1-57) (structured_RNA) RNA: GGUCUCUCUGGUUAGACCAGAUCUGAGCCUGGGAGCUCUCUGGCUAACUAGGGAACC | ~5 | 
Bio-TAR RNA (HIV-1 vRNA 1-57) (structured_RNA, biotin-dT (terminal; end ambiguous in printed table)) RNA: GGUCUCUCUGGUUAGACCAGAUCUGAGCCUGGGAGCUCUCUGGCUAACUAGGGAACC |  | binds

Source: paper PMC8115288, “INI1/SMARCB1 Rpt1 domain mimics TAR RNA in binding to integrase to facilitate HIV-1 replication”
